According to US20100172907A1 (Hoffmann-La Roche, published 2010):
Groups on a side chain read outwards from the residue. No end group written: not given here. NSMP = not defined here

T1: BSA-conjugated Aβ heptapeptide AEFRHDC (C-terminal Cys coupled to NSMP-activated BSA)
T1 construct: also called Peptide 2-7
T1 peptide: AEFRHDC

T2: BSA-conjugated Aβ heptapeptide FFAEDVC (C-terminal Cys coupled to NSMP-activated BSA)
T2 construct: also called Peptide 19-24
T2 peptide: FFAEDVC

T3: BSA-conjugated Aβ heptapeptide VFFAEDC (C-terminal Cys coupled to NSMP-activated BSA)
T3 construct: also called Peptide 18-23
T3 peptide: VFFAEDC

T4: BSA-conjugated Aβ heptapeptide LVFFAEC (reading uncertain; also: BSA conjugate)
T4 construct: also called Peptide 17-22
T4 peptide: LVFFAEC([NSMP-BSA])

B1: MS-R #7.9.H7 IgG1 (antibody, V domains shown)
VH: QVELVESGGGLVQPGGSLRLSCAASGFTFSSYAMSWVRQAPGKGLEWVSAINASGTRTYYADSVKGRFTISRDNSKNTLYLQMNSLRAEDTAVYYCARGKGNTHKPYGYVRYFDVWGQGTLVTVSS
VL: DIVLTQSPATLSLSPGERATLSCRASQSVSSSYLAWYQQKPGQAPRLLIYGASSRATGVPARFSGSGSGTDFTLTISSLEPEDFATYYCLQIYNMPITFGQGTKVEIKR
notes: full-length human IgG1; also called MAB 31; MS-Roche IgG #7.9.H7
B2: MS-R IgG 7.11H2 (antibody, V domains shown)
VH: QVELVESGGGLVQPGGSLRLSCAASGFTFSSYAMSWVRQAPGKGLEWVSAINANGYKKYYADSVKGRFTISRDNSKNTLYLQMNSLRAEDTAVYYCARGKGNTHKPYGYVRYFDVWGQGTLVTVSS
VL: DIVLTQSPATLSLSPGERATLSCRASQSVSSSYLAWYQQKPGQAPRLLIYGASSRATGVPARFSGSGSGTDFTLTISSLEPEDFATYYCQQVYSPPHTFGQGTKVEIKR
notes: full-length human IgG; also called 7.11H2 IgG
B3: MSR 7.9.H2 IgG1 (antibody, V domains shown)
VH: QVELVESGGGLVQPGGSLRLSCAASGFTFSSYAMSWVRQAPGKGLEWVSAINADGNRKYYADSVKGRFTISRDNSKNTLYLQMNSLRAEDTAVYYCARGKGNTHKPYGYVRYFDVWGQGTLVTVSS
VL: DIVLTQSPATLSLSPGERATLSCRASQSVSSSYLAWYQQKPGQAPRLLIYGASSRATGVPARFSGSGSGTDFTLTISSLEPEDFATYYCLQIYNMPITFGQGTKVEIKR
notes: full-length human IgG1
B4: MS-R IgG1 8.2.H2 (antibody, V domains shown)
VH: QVELVESGGGLVQPGGSLRLSCAASGFTFSSYAMSWVRQAPGKGLEWVSAISRTGSKTYYADSVKGRFTISRDNSKNTLYLQMNSLRAEDTAVYYCARLLSRGYNGYYHKFDVWGQGTLVTVSS
VL: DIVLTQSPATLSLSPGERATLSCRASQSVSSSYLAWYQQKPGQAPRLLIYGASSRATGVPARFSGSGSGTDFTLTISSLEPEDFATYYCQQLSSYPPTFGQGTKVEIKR
notes: full-length human IgG1
B5: MS-R IgG 8.2.H2 × 8.2.L1 (antibody, V domains shown)
VH: QVELVESGGGLVQPGGSLRLSCAASGFTFSSYAMSWVRQAPGKGLEWVSAISRTGSKTYYADSVKGRFTISRDNSKNTLYLQMNSLRAEDTAVYYCARLLSRGYNGYYHKFDVWGQGTLVTVSS
VL: DIVLTQSPATLSLSPGERATLSCRASQRVSGRYLAWYQQKPGQAPRLLIYGASSRATGVPARFSGSGSGTDFTLTISSLEPEDFATYYCQQLSSYPPTFGQGTKVEIKR
notes: full-length human IgG
B6: MSR 3.4.H7 IgG1 (antibody, V domains shown)
VH: QVQLVESGGGLVQPGGSLRLSCAASGFTFSSYAMSWVRQAPGKGLEWVSVISETGKNIYYADSVKGRFTISRDNSKNTLYLQMNSLRAEDTAVYYCARLTHYARYYRYFDVWGQGTLVTVSS
VL: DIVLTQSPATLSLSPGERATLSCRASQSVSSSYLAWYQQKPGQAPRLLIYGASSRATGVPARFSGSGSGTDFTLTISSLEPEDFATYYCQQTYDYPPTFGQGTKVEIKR
notes: full-length human IgG1
B7: MS-R IgG1 7.2.H4 (antibody, V domains shown)
VH: QVELVESGGGLVQPGGSLRLSCAASGFTFSSYAMSWVRQAPGKGLEWVSAINSKGSRIYYADSVKGRFTISRDNSKNTLYLQMNSLRAEDTAVYYCARGKGNTHKPYGYVRYFDVWGQGTLVTVSS
VL: DIVLTQSPATLSLSPGERATLSCRASQSVSSSYLAWYQQKPGQAPRLLIYGASSRATGVPARFSGSGSGTDFTLTISSLEPEDFATYYCQQIYSFPHTFGQGTKVEIK
notes: full-length human IgG1
B8: MS-R IgG1 7.9.H3 (antibody, V domains shown)
VH: QVELVESGGGLVQPGGSLRLSCAASGFTFSSYAMSWVRQAPGKGLEWVSAINYQGNRKYYADSVKGRFTISRDNSKNTLYLQMNSLRAEDTAVYYCARGKGNTHKPYGYVRYFDVWGQGTLVTVSS
VL: DIVLTQSPATLSLSPGERATLSCRASQSVSSSYLAWYQQKPGQAPRLLIYGASSRATGVPARFSGSGSGTDFTLTISSLEPEDFATYYCLQIYNMPITFGQGTKVEIK
notes: full-length human IgG1; also called 7.9H3 IgG
B9: MS-R IgG1 7.12.L1 (antibody, V domains shown)
VH: QVQLVESGGGLVQPGGSLRLSCAASGFTFSSYGMSWVRQAPGKGLEWVSNISGSGSSTYYADSVKGRFTISRDNSKNTLYLQMNSLRAEDTAVYYCARGKGNTHKPYGYVRYFDVWGQGTLVTVSS
VL: DIVLTQSPATLSLSPGERATLSCRASQYVFRRYLAWYQQKPGQAPRLLISGSSNRATGVPARFSGSGSGTDFTLTISSLEPEDFAVYYCLQLYNIPNTFGQGTKVEIKR
notes: full-length human IgG1
B10: MS-R IgG1 3.6.H5 × 3.6.L2 (antibody, V domains shown)
VH: ELVESGGGLVQPGGSLRLSCAASGFTFSSYAMSWVRQAPGKGLEWVSAISESGKTKYYADSVKGRFTISRDNSKNTLYLQMNSLRAEDTAVYYCARLTHYARYYRYFDVWGQGTLVTVSS
VL: DIVLTQSPATLSLSPGERATLSCRASQFLSRYYLAWYQQKPGQAPRLLIYGASSRATGVPARFSGSGSGTDFTLTISSLEPEDFAVYYCQQTYNYPPTFGQGTKVEIKR
notes: full-length human IgG1; VH entry starts at QLVESGG
B11: MS-R IgG1 3.6.H8 × 3.6.L2 (antibody, V domains shown)
VH: ELVESGGGLVQPGGSLRLSCAASGFTFSSYAMSWVRQAPGKGLEWVSAISEYSKFKYYADSVKGRFTISRDNSKNTLYLQMNSLRAEDTAVYYCARLTHYARYYRYFDVWGQGTLVTVSS
VL: DIVLTQSPATLSLSPGERATLSCRASQFLSRYYLAWYQQKPGQAPRLLIYGASSRATGVPARFSGSGSGTDFTLTISSLEPEDFAVYYCQQTYNYPPTFGQGTKVEIKR
notes: as for B10
B12: MS-R #7.11.H1×7.2.L1 IgG1 (antibody, V domains shown)
VH: ELVESGGGLVQPGGSLRLSCAASGFTFSSYAMSWVRQAPGKGLEWVSGINAAGFRTYYADSVKGRFTISRDNSKNTLYLQMNSLRAEDTAVYYCARGKGNTHKPYGYVRYFDVWGQGTLVTVSS
VL: DIVLTQSPATLSLSPGERATLSCRASQYVDRTYLAWYQQKPGQAPRLLIYGASSRATGVPARFSGSGSGTDFTLTISSLEPEDFATYYCQQIYSFPHTFGQGTKVEIKR
notes: full-length human IgG1; VH entry starts at QLVESGG; also called MAB 11
B13: MS-R IgG1 7.4.H2 × 7.2.L1 (antibody, V domains shown)
VH: ELVESGGGLVQPGGSLRLSCAASGFTFSSYAMSWVRQAPGKGLEWVSAINYNGARIYYADSVKGRFTISRDNSKNTLYLQMNSLRAEDTAVYYCARGKGNTHKPYGYVRYFDVWGQGTLVTVSS
VL: DIVLTQSPATLSLSPGERATLSCRASQYVDRTYLAWYQQKPGQAPRLLIYGASSRATGVPARFSGSGSGTDFTLTISSLEPEDFATYYCQQIYSFPHTFGQGTKVEIKR
notes: as for B10
B14: MS-R IgG1 7.11.H1 × 7.11.L1 (antibody, V domains shown)
VH: ELVESGGGLVQPGGSLRLSCAASGFTFSSYAMSWVRQAPGKGLEWVSGINAAGFRTYYADSVKGRFTISRDNSKNTLYLQMNSLRAEDTAVYYCARGKGNTHKPYGYVRYFDVWGQGTLVTVSS
VL: DIVLTQSPATLSLSPGERATLSCRASQRILRIYLAWYQQKPGQAPRLLIYGASSRATGVPARFSGSGSGTDFTLTISSLEPEDFATYYCQQVYSPPHTFGQGTKVEIKR
notes: as for B10
B15: MS-Roche #7.9H2×7.12L2(L1+2) Fab (Fab, V domains shown)
VH: QLVESGGGLVQPGGSLRLSCAASGFTFSSYAMSWVRQAPGKGLEWVSAINADGNRKYYADSVKGRFTISRDNSKNTLYLQMNSLRAEDTAVYYCARGKGNTHKPYGYVRYFDVWGQGTLVTVSS
VL: DIVLTQSPATLSLSPGERATLSCRASQRFFYKYLAWYQQKPGQAPRLLISGSSNRATGVPARFSGSGSGTDFTLTISSLEPEDFATYYCLQIYNMPITFGQGTKVEIKR
notes: VL assembled from the legend's definition and cloning strategy 3
B16: MS-Roche #8.1H1×8.2L1 Fab (Fab, V domains shown)
VH: QLVESGGGLVQPGGSLRLSCAASGFTFSSYAMSWVRQAPGKGLEWVSAISRSGSNIYYADSVKGRFTISRDNSKNTLYLQMNSLRAEDTAVYYCARLLSRGYNGYYHKFDVWGQGTLVTVSS
VL: DIVLTQSPATLSLSPGERATLSCRASQRVSGRYLAWYQQKPGQAPRLLIYGASSRATGVPARFSGSGSGTDFTLTISSLEPEDFATYYCQQLSSYPPTFGQGTKVEIKR
notes: cross-cloned Fab

Tests used:
human Aβ (1-40) peptide [1] = molecular target: T5, human Aβ (1-40) peptide (human); experiment: SPR Scatchard, higher affinity (bivalent)
T5 construct: also called Aβ1-40 fibers
Description: (§1) Binders with fast kinetics were analyzed by fitting the concentration-dependent sensor responses at equilibrium (adsorption-isotherms). KD values were calculated from the Biacore sensograms based on the total Fab concentration as determined by a protein assay. […] Briefly, time-dependent protein binding to Aβ1-40 fibers immobilized on the Biacore chip was measured during the association phase under mass-limited conditions at different flow rates of the analyte solution.
(§2) KD values of IgG binding to Aβ1-40 and Aβ1-42 fibers were determined in the Biacore. Briefly, a kinetic model for the stepwise formation of a bivalent complex was used, and KD values were calculated by Scatchard type analysis of equilibrium binding. Due to the very slow association process at low antibody concentration (several hours to reach equilibrium) equilibrium binding data were obtained by extrapolation of the association curves to long time intervals. The on- and off rates for the formation of the monovalent and bivalent complex were determined via the curve fit procedure and used for the extrapolation. Based on these Req values a Scatchard analysis was performed and KD values for the formation of the monovalent and the bivalent complex were determined.

Aβ (1-42) peptide [2] = molecular target: T6, Aβ (1-42) peptide (human); experiment: SPR Scatchard, higher affinity (bivalent)
T6 construct: also called Aβ1-42 fibers; Aβ4
Description: as §1, §2

[3] = molecular target: T1, BSA-conjugated Aβ heptapeptide AEFRHDC; experiment: ELISA
Description: (§3) 50 μl of NSMP activated BSA (6.7 mg/ml) was diluted with 50 μl of PBS, 0.1% sodium azide and 10 μl of peptide solution (1 mM in DMSO) was added. As negative control activated BSA was mock-treated without peptide addition. After 4 hrs at room temperature the reaction was stopped by addition of 10 μl of 10 mM Cystein. An aliquot of the conjugate reaction mixture was diluted 1:100 with 0.1M sodium bicarbonate buffer and immediately filled into the wells (100 μl) of ELISA plates (Nunc Immuno-Plate). After standing 16 hrs at 4° C. 100 μl blocking buffer (as above) was added to each well and incubated for another 30 minutes. The plates were washed with 2×300 μl/well TBST (as above) and filled with 100 μl antibody at 10 μg/ml or 2 μg/ml in blocking buffer. The plates were kept 16 hours at 4° C. and washed with 2×300 μl TBST. 100 μl/well HRP-conjugated anti-human Ig H+L (Pierce, dilution 1:1000 with blocking buffer) was added and incubated for 1 hour at ambient temperature. The plates were washed with 3×300 μl/well TBST. Colour development was started by addition of 100 μl tetra-methyl benzidine/hydrogen peroxide reagent.

[4] = molecular target: T2, BSA-conjugated Aβ heptapeptide FFAEDVC; experiment: ELISA
Description: as §3

[5] = molecular target: T3, BSA-conjugated Aβ heptapeptide VFFAEDC; experiment: ELISA
Description: as §3

[6] = molecular target: T4, BSA-conjugated Aβ heptapeptide LVFFAEC; experiment: ELISA
Description: as §3

human Aβ (1-40) peptide [7] = molecular target: T5, human Aβ (1-40) peptide; experiment: SPR, kinetic fit, immobilized fibers;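 note: surface plasmon resonance on a Biacore chip bearing in vitro formed Aβ1-40 or Aβ1-42 fibers, KD taken as koff/kon by fitting time-resolved sensor responses, based on total Fab concentration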
Description: (§4) Biacore2000 and Biacore3000 instruments were used for these measurements. Aβ1-40 and Aβ1-42 fibers were generated in vitro by incubation of synthetic peptides at a concentration of 200 μg/ml in 10 mM Na-acetate buffer (pH 4.0) for three days at 37° C. […] For binders with slow kinetics KD values were calculated by curve fitting of the time-dependent sensor responses, i.e. from the ratio of koff/kₒₙ. Binders with fast kinetics were analyzed by fitting the concentration-dependent sensor responses at equilibrium (adsorption-isotherms). KD values were calculated from the Biacore sensograms based on the total Fab concentration as determined by a protein assay. […] Briefly, time-dependent protein binding to Aβ1-40 fibers immobilized on the Biacore chip was measured during the association phase under mass-limited conditions at different flow rates of the analyte solution.

Aβ (1-42) peptide [8] = molecular target: T6, Aβ (1-42) peptide; experiment: SPR, kinetic fit, immobilized fibers;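 note: surface plasmon resonance on a Biacore chip bearing in vitro formed Aβ1-40 or Aβ1-42 fibers, KD taken as koff/kon by fitting time-resolved sensor responses, based on total Fab concentration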
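Throughout, for OD ratio 18-23/BSA: ELISA binding of human antibody (10 or 2 µg/ml) to plate-coated BSA–peptide conjugates, detected with HRP anti-human Ig and TMB colour, mock-treated BSA as negative control.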
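Throughout, for OD ratio 19-24/BSA: ELISA binding of human antibody (10 or 2 µg/ml) to plate-coated BSA–peptide conjugates, detected with HRP anti-human Ig and TMB colour, mock-treated BSA as negative control.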
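Throughout, for OD ratio 2-7/BSA: ELISA binding of human antibody (10 or 2 µg/ml) to plate-coated BSA–peptide conjugates, detected with HRP anti-human Ig and TMB colour, mock-treated BSA as negative control.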
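Throughout, for Peptide-ratio 19-24/2-7: ELISA binding of human antibody (10 or 2 µg/ml) to plate-coated BSA–peptide conjugates, detected with HRP anti-human Ig and TMB colour, mock-treated BSA as negative control.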
Description: as §4

Kd (human Aβ (1-40) peptide [1]) | Kd (Aβ (1-42) peptide [2]) | OD ratio 2-7/BSA [3] | OD ratio 19-24/BSA [4] | Peptide-ratio 19-24/2-7 [4] | OD ratio 18-23/BSA [5] | Peptide-ratio 18-23/2-7 [5] | OD ratio 17-22/BSA [6] | Peptide-ratio 17-22/2-7 [6] | Kd (human Aβ (1-40) peptide [7]) | Kd (Aβ (1-42) peptide [8]) | Binder
0.25 to 0.69 nM | 0.24 to 0.7 nM | 30 | 10 | 0.33 | 16 | 0.53 | 5 | 0.17 | – | – | B1
– | – | 10 | 6 | 0.6 | 7 | 0.7 | 6 | 0.6 | – | – | B2
0.12 to 0.42 nM | 0.11 to 0.38 nM | 13 | 6 | 0.46 | 8 | 0.62 | 5 | 0.38 | – | – | B3
0.16 to 1 nM | 0.12 to 0.92 nM | 18 | 14 | 0.78 | 15 | 0.83 | 10 | 0.56 | – | – | B4
– | – | 13 | 25 | 1.92 | 25 | 1.92 | 20 | 1.54 | – | – | B5
0.1 to 0.3 nM | 0.1 to 0.3 nM | 22 | 15 | 0.68 | 16 | 0.73 | 3 | 0.14 | – | – | B6
0.09 to 0.3 nM | 0.1 to 0.66 nM | – | – | – | – | – | – | – | – | – | B7
0.1 to 0.5 nM | 0.1 to 0.4 nM | 13 | 6 | 0.46 | 8 | 0.62 | 6 | 0.46 | – | – | B8
1.2 to 3.5 nM | 0.74 to 2.9 nM | – | – | – | – | – | – | – | – | – | B9
0.2 to 1.03 nM | 0.2 to 0.95 nM | 11 | 8 | 0.73 | 9 | 0.82 | 7 | 0.64 | – | – | B10
0.22 to 0.95 nM | 0.22 to 0.82 nM | – | – | – | – | – | – | – | – | – | B11
0.14 to 0.66 nM | 0.15 to 0.67 nM | – | – | – | – | – | – | – | – | – | B12
0.12 to 0.63 nM | 0.12 to 0.56 nM | – | – | – | – | – | – | – | – | – | B13
0.11 to 0.7 nM | 0.13 to 0.7 nM | – | – | – | – | – | – | – | – | – | B14
– | – | – | – | – | – | – | – | – | 0.4 nM | 0.4 nM | B15
– | – | – | – | – | – | – | – | – | 1.3 nM | 1.6 nM | B16
